{"source": "paper PMC13235457", "key": {"[1]": {"target": "ZAP-70 tSH2 domain R190A mutant (human) (UniProt P43403)", "assay": "ITC; 20 μM R190A tSH2 in the cell, 300 μM ITAM-ζ1-Y2P in the syringe; 20 °C; 20 mM HEPES pH 8.2, 5 mM β-mercaptoethanol, glycerol-free; 5 mM KCl; one-site model"}, "[2]": {"target": "ZAP-70 tSH2 domain R190A mutant (human) (UniProt P43403)", "assay": "ITC; 20 μM R190A tSH2 in the cell, 300 μM ITAM-ζ1-Y2P in the syringe; 20 °C; 20 mM HEPES pH 8.2, 5 mM β-mercaptoethanol, glycerol-free; 20 mM KCl; one-site model"}, "[3]": {"target": "ZAP-70 tSH2 domain R190A mutant (human) (UniProt P43403)", "assay": "ITC; 20 μM R190A tSH2 in the cell, 300 μM ITAM-ζ1-Y2P in the syringe; 20 °C; 20 mM HEPES pH 8.2, 5 mM β-mercaptoethanol, glycerol-free; 150 mM NaCl; one-site model"}}, "data": [{"substance": "ITAM-ζ1-Y2P peptide (doubly phosphorylated first ITAM of the CD3-ζ chain)", "values": [{"measurement": "Kd", "setting": "[1]", "result": 9.77, "unit": "µM"}, {"measurement": "Kd", "setting": "[2]", "result": 20.9, "unit": "µM"}, {"measurement": "Kd", "setting": "[3]", "result": 6.33, "unit": "µM"}]}]}
